Results reported in US20240117061A1 (WUHAN YZY BIOPHARMA, published 2024).
Where two headings read alike, the source gives them in different places.

Tests used:
[1] = target: T1, cynomolgus monkey BCMA on HEK293 cynoBCMA cells (cynomolgus monkey, UniProt A0A2K5UD97 1-183); assay: flow cytometry on HEK293 cynoBCMA cells
T1 construct: whole, on cells
Experimental: Procedures: Preparation of cell suspensions: The cells were resuspended in PBS, and the cell density was adjusted to 2×10⁵ cells/well. Mouse antibodies were added to a 96-well plate at […] and serially 3-fold diluted from 3000 nM. The plate was incubated for 1 h at 4° C. 150 μL of precooled PBS containing 1% of FBS was added into the 96-well plate after the co-incubation with the primary antibody was finished. The mixtures were centrifuged at 300×g for 5 min and the supernatants were discarded. The above procedures were repeated once. The fluorescent secondary antibody PE […] (Biolegend, 409304) was added at 80 μL/well. The plate was incubated at 4° C. for 30 min. 150 μL of precooled PBS containing 1% of FBS was added into the 96-well plate after the co-incubation with the secondary antibody was finished. The mixtures were uniformly mixed with a pipette. The 96-well plate was centrifuged at 300×g for 5 min in a plate centrifuge and the supernatants were removed. The above procedures were repeated once. The cells were resuspended in 100 μL of PBS containing 1% of FBS and detected on a flow cytometry (BD Accuri™ C6).

[2] = target: T2, recombinant cynomolgus monkey cynoBCMA-his (ACRO Biosystem, Cat. No. BCA-052H7) (cynomolgus monkey, UniProt A0A2K5UD97 1-53); assay: SPR (Biacore T200), anti-His capture on CM5, 1:1 fit
T2 construct: extracellular domain; Bought protein; also called cynomolgus/rhesus macaque BCMA/TNFRSF17 protein; not shown: His tag

[3] = target: T2, recombinant cynomolgus monkey …; assay: competitive ELISA, coated cynoBCMA-his, competitor 83A10-biotin
[4] = target: T2, recombinant cynomolgus monkey …; assay: ELISA, coated antigen
Method in brief: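 Plates coated overnight at 4° C with 0.5 μg/mL His-tagged BCMA antigen (human or cynomolgus) in PBS pH 7.4, then blocked with 3% BSA. Humanized antibodies in 3-fold serial dilutions (11 points) were bound 1 h at room temperature. Detection used HRP anti-His antibody and TMB, read as OD450.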

[5] = target: T3, recombinant cynomolgus monkey BCMA-mFc (cynomolgus monkey; mouse); assay: indirect ELISA, coated antigen
T3 construct: also called cynoBCMA-mFc
Experimental: Procedures: Human, mouse and monkey BCMA antigens were prepared into 0.5 μg/mL coating solutions with PBS buffer. The coating solutions were added to a microplate at 100 μL/well and incubated at 4° C. overnight. The residual coating solution was discarded before 3% BSA was added at 300 μL/well, and the plate was blocked for 3 h at room temperature. The microplate was washed once with PB ST (PBS containing 0.1% of TWEEN 20) at 300 μL/well. The human-mouse chimeric monoclonal antibodies were serially 3-fold diluted from 10 μg/mL to the 9th concentration. The dilutions were added to the microplate at 100 μL/well. After a 1-h incubation at room temperature, the microplate was washed thrice with PB ST at 300 μL/well. The mouse anti-human IgG Fc antibody [HRP] mAb was 25,000-fold diluted with 1% BSA-PBST and added at 100 μL/well. After another 1-h incubation at room temperature, the microplate was washed thrice with PBST at 300 μL/well and dried. The TMB chromogenic solution was added at 100 μL/well. After a 5-min reaction at room temperature, 2 M H₂SO₄ was added at 100 μL/well to terminate the reaction. The microplate was placed on a microplate reader (Molecular Devices, SPECTRA Max plus 384) and the absorbance OD450 value was read at 450 nm wavelength.

[6] = target: T1, cynomolgus monkey BCMA on HEK293 …; assay: flow cytometry on HEK293 cynoBCMA cells; remark: listed apart in the source
Experimental: Procedures: The cells were resuspended in PBS, and the cell density was adjusted to 2×10^5 cells/well. Human-mouse chimeric monoclonal antibodies were added to a 96-well plate at 50 μL/well and serially 3-fold diluted from 3000 nM to the 9th concentration. The plate was incubated for 1 h at 4° C. 150 μL of precooled PBS containing 1% of FBS was added into the 96-well plate after the co-incubation with the primary antibody was finished. The mixtures were centrifuged at 300×g for 5 min and the supernatants were discarded. The above procedures were repeated once. The fluorescent secondary antibody PE anti-human IgG Fc (Biolegend, 409304) was added at 80 μL/well. The plate was incubated at 4° C. for 30 min. 150 μL of precooled PBS containing 1% of FBS was added into the 96-well plate after the co-incubation with the secondary antibody was finished. The 96-well plate was centrifuged at 300×g for 5 min and the supernatants were discarded. The above procedures were repeated once. The cells were resuspended in 100 μL of PBS containing 1% of FBS and detected on a flow cytometry (BD Accuri™ C6).

T2 sequence (A0A2K5UD97 entry or part of it): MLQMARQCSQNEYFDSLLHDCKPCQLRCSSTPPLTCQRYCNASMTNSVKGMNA
T1 sequence (A0A2K5UD97 entry or part of it): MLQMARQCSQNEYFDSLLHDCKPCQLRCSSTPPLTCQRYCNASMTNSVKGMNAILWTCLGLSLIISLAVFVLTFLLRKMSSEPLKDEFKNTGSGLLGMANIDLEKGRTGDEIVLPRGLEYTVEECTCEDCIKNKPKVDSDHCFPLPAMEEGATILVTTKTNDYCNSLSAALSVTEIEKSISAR
T3 sequence (chain, as listed by the source limits assumed): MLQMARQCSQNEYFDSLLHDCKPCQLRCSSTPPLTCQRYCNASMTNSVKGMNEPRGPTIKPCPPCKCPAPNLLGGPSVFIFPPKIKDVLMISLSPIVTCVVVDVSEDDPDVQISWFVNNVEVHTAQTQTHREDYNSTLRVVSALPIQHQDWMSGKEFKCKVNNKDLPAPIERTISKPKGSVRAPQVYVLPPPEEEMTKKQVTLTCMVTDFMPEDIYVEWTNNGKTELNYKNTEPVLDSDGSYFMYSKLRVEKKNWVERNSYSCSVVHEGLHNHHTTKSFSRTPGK

B1: human-mouse chimeric antibody c-mAb3 (antibody, human IgG1, V domains shown)
VH: EVQLQQSGPELVKPGASVKILCKASGYTITDYNMDWVKRSHGKSLEWIGNINPHNGGSIYNQKFKGKATLTVDKSSSTAFMELRSLTSEDTAVYYCARGDATLVLDYWGQGTSLTVSS
VL: DIVLTQSPASLAVSLGQRATISCRASKSVSTSGLSYMHWYQQKPGQPPKVLIYLASNLESGVPARFSGSGSGTDFTLNIHPVEEEDAATYYCQHSRELPPTFGAGTKLELK
notes: not shown: human IgG1 heavy chain constant region, GenBank No. AK303185.1; human kappa light chain constant region, GenBank No. MG815648.1
Q: B1 was tested. Which EC50 [1] did it give?
A: 2.66 nM

Q: And the Kd [2]?
A: 0.106 nM

Q: What about the koff [2] of the same binder?
A: 0.000373 s⁻¹

Q: What about the kon [2] of the same binder?
A: 3.54e+06 M⁻¹ s⁻¹

Q: What about the IC50 [3] of the same binder?
A: 1.05 µg/mL

Q: And the EC50 [4]?
A: 0.0248 nM

Q: What about the EC50 [5] of the same binder?
A: 0.723 nM

Q: And the EC50 [6]?
A: 2.66 nM
